Tested on: Escherichia coli TOP10
Assay: shrunken log2 fold change of peptide-encoding DNA abundance (4.5 h post-induction vs induction); higher = less antimicrobial activity (less host growth inhibition)
Conditions: time post-induction: 4.5 h; library: site-saturation at positions 5, 18, 19, 20
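Also: peptides expressed intracellularly from a pBAD plasmid library in pooled LB shake-flask culture, induced with 0.3% L-arabinose, DNA abundance read by NGS, three biological replicates, DESeq2 with apeglm shrinkage.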

Sequence	shrunken log2 fold change
RRIRVRPPRLPRPRPRPRWHPRP	0.217
RRIRHRPPRLPRPRPRPETYPRP	-0.00431
RRIRHRPPRLPRPRPRPEANPRP	0.00386
RRIRYRPPRLPRPRPRPCTFPRP	-0.208
RRIRHRPPRLPRPRPRPEMDPRP	0.015
RRIRVRPPRLPRPRPRPCCRPRP	0.0482
RRIRARPPRLPRPRPRPATQPRP	0.437
RRIRGRPPRLPRPRPRPWWWPRP	0.152
RRIRDRPPRLPRPRPRPTRHPRP	0.42
RRIRIRPPRLPRPRPRPHWIPRP	-0.157
RRIRPRPPRLPRPRPRPPHCPRP	0.388
RRIRCRPPRLPRPRPRPKCRPRP	-0.281
RRIRTRPPRLPRPRPRPPTSPRP	0.345
RRIRGRPPRLPRPRPRPHIPPRP	-0.101
RRIRARPPRLPRPRPRPMQNPRP	0.767
RRIRCRPPRLPRPRPRPIYQPRP	-0.306
RRIRFRPPRLPRPRPRPNICPRP	-0.252
RRIRKRPPRLPRPRPRPMKRPRP	0.138
RRIRCRPPRLPRPRPRPACPPRP	-0.136
RRIRQRPPRLPRPRPRPFIQPRP	-0.321
RRIRFRPPRLPRPRPRPDVSPRP	0.0432
RRIRPRPPRLPRPRPRPFFRPRP	-0.0565
RRIRRRPPRLPRPRPRPKVKPRP	-0.0947
RRIRKRPPRLPRPRPRPFPGPRP	-0.0018
RRIRPRPPRLPRPRPRPFCAPRP	0.0563

Sequence	shrunken log2 fold change
RRIRPRPPRLPRPRPRPKAQPRP	-0.155
RRIRGRPPRLPRPRPRPVQVPRP	0.215
RRIRIRPPRLPRPRPRPDRSPRP	-0.364
RRIRDRPPRLPRPRPRPSWWPRP	0.276
RRIRLRPPRLPRPRPRPTKFPRP	-0.0571
RRIRARPPRLPRPRPRPHYVPRP	-0.255
RRIRIRPPRLPRPRPRPYTRPRP	-0.353
RRIRWRPPRLPRPRPRPTKYPRP	-0.124
RRIRPRPPRLPRPRPRPRYIPRP	-0.602
RRIRHRPPRLPRPRPRPKPNPRP	0.225
RRIRQRPPRLPRPRPRPGPKPRP	-0.0957
RRIRSRPPRLPRPRPRPPGIPRP	0.157
RRIRIRPPRLPRPRPRPKAYPRP	-0.124
RRIRARPPRLPRPRPRPVRTPRP	1.06
RRIRIRPPRLPRPRPRPEGSPRP	0.0664
RRIRCRPPRLPRPRPRPEVKPRP	0.149
RRIRSRPPRLPRPRPRPAFWPRP	0.651
RRIRFRPPRLPRPRPRPNREPRP	-0.181
RRIRRRPPRLPRPRPRPGWSPRP	0.472
RRIRERPPRLPRPRPRPCRVPRP	-0.25
RRIRTRPPRLPRPRPRPMWIPRP	-0.222
RRIRWRPPRLPRPRPRPPGRPRP	0.877
RRIRWRPPRLPRPRPRPTHMPRP	0.206
RRIRPRPPRLPRPRPRPAWPPRP	0.6
RRIRPRPPRLPRPRPRPKKWPRP	-0.0589

Sequence	shrunken log2 fold change
RRIRMRPPRLPRPRPRPQINPRP	-0.0723
RRIRPRPPRLPRPRPRPANHPRP	-0.0982
RRIRLRPPRLPRPRPRPKDGPRP	-0.0687
RRIRPRPPRLPRPRPRPEENPRP	0.163
RRIRKRPPRLPRPRPRPKTLPRP	0.239
RRIRRRPPRLPRPRPRPYPHPRP	-0.181
RRIRHRPPRLPRPRPRPKRYPRP	-0.0093
RRIRMRPPRLPRPRPRPSCNPRP	0.197
RRIRRRPPRLPRPRPRPVLIPRP	0.177
RRIRARPPRLPRPRPRPVQNPRP	0.814
RRIRWRPPRLPRPRPRPMGMPRP	0.403
RRIRSRPPRLPRPRPRPDQVPRP	-0.0236
RRIRQRPPRLPRPRPRPRYGPRP	-0.407
RRIRERPPRLPRPRPRPSVVPRP	-0.213
RRIRSRPPRLPRPRPRPRMQPRP	0.108
RRIRHRPPRLPRPRPRPQHKPRP	-0.494
RRIRIRPPRLPRPRPRPDAFPRP	-0.15
RRIRVRPPRLPRPRPRPDQYPRP	-0.234
RRIRIRPPRLPRPRPRPGKMPRP	-0.329
RRIRIRPPRLPRPRPRPKTSPRP	-0.465
RRIRYRPPRLPRPRPRPHSTPRP	-0.181
RRIRARPPRLPRPRPRPGMAPRP	0.709
RRIRDRPPRLPRPRPRPCGFPRP	-0.0017
RRIRFRPPRLPRPRPRPGITPRP	-0.45
RRIRGRPPRLPRPRPRPCRCPRP	0.107

Sequence	shrunken log2 fold change
RRIRKRPPRLPRPRPRPVAIPRP	0.265
RRIRRRPPRLPRPRPRPMRKPRP	0.58
RRIRTRPPRLPRPRPRPVNQPRP	0.0163
RRIRFRPPRLPRPRPRPQHNPRP	-0.781
RRIRWRPPRLPRPRPRPQENPRP	-0.0785
RRIRCRPPRLPRPRPRPQISPRP	-0.785
RRIRKRPPRLPRPRPRPEAYPRP	0.0226
RRIRNRPPRLPRPRPRPGAFPRP	-0.0452
RRIRARPPRLPRPRPRPNWQPRP	-0.0264
RRIRDRPPRLPRPRPRPCQHPRP	-0.276
RRIRQRPPRLPRPRPRPGKCPRP	0.0125
RRIRYRPPRLPRPRPRPFVMPRP	-1.07
RRIRDRPPRLPRPRPRPTVPPRP	-0.326
RRIRQRPPRLPRPRPRPHCGPRP	0.0588
RRIRERPPRLPRPRPRPTFRPRP	-0.00937
RRIRHRPPRLPRPRPRPNGMPRP	-0.0133
RRIRARPPRLPRPRPRPGSGPRP	0.576
RRIRFRPPRLPRPRPRPFASPRP	-0.705
RRIRARPPRLPRPRPRPMNTPRP	0.0292
RRIRTRPPRLPRPRPRPTKVPRP	-0.134
RRIRVRPPRLPRPRPRPEIHPRP	-0.0841
RRIRARPPRLPRPRPRPWCFPRP	0.0976
RRIRQRPPRLPRPRPRPERNPRP	0.0526
RRIRCRPPRLPRPRPRPNYSPRP	-0.522
RRIRYRPPRLPRPRPRPMINPRP	-1.18

Sequence	shrunken log2 fold change
RRIRERPPRLPRPRPRPDPGPRP	0.0879
RRIRWRPPRLPRPRPRPKVIPRP	-0.0585
RRIRDRPPRLPRPRPRPGPHPRP	0.132
RRIRWRPPRLPRPRPRPRNGPRP	0.401
RRIRSRPPRLPRPRPRPAKLPRP	0.195
RRIRNRPPRLPRPRPRPINRPRP	-0.0423
RRIRRRPPRLPRPRPRPKVVPRP	0.0343
RRIRIRPPRLPRPRPRPTVYPRP	-0.177
RRIRLRPPRLPRPRPRPEPDPRP	0.342
RRIRQRPPRLPRPRPRPASLPRP	-0.232
RRIRRRPPRLPRPRPRPVYLPRP	-0.173
RRIRERPPRLPRPRPRPNYPPRP	-0.509
RRIRTRPPRLPRPRPRPKRWPRP	0.723
RRIRPRPPRLPRPRPRPPMIPRP	-0.425
RRIRVRPPRLPRPRPRPSFSPRP	-0.498
RRIRFRPPRLPRPRPRPDQSPRP	0.0148
RRIRSRPPRLPRPRPRPQKFPRP	-0.14
RRIRDRPPRLPRPRPRPSTEPRP	0.301
RRIRKRPPRLPRPRPRPKCLPRP	0.118
RRIRWRPPRLPRPRPRPKNPPRP	0.152
RRIRHRPPRLPRPRPRPITAPRP	-0.303
RRIRYRPPRLPRPRPRPYSDPRP	-0.237
RRIRLRPPRLPRPRPRPWTMPRP	-0.202
RRIRMRPPRLPRPRPRPFYVPRP	-0.514
RRIRNRPPRLPRPRPRPFRGPRP	0.168

Reference: the supplement of paper PMC9112550, “Optimization of the antimicrobial peptide Bac7 by deep mutational scanning” (BMC Biology, 2022)
